The text below walks through data of PMC5548840, “The FAD synthetase from the human pathogen Streptococcus pneumoniae: a bifunctional enzyme exhibiting activity-dependent redox requirements” (Scientific Reports, 2017).

Series [1] addresses T1, SpnFADS (Streptococcus pneumoniae, UniProt A0A0H2UPY5).
T1 construct: gene SP_1110; full length (modules 1-186 FMNAT, 187-305 RFK); N-terminal His6-PreScission tag removed; codon-optimised synthetic gene in modified pET-15b, E. coli BL21 Star (DE3); 34,521 Da; mainly monomer
In words: isothermal titration calorimetry. The class given is binding. The note with it: 20 mM PIPES pH 7.0, 20 °C, free enzyme. The source says: isothermal titration calorimetry on SpnFADS
(Isothermal titration calorimetry measures the heat released or taken up as one component is titrated into another.)

In series [2] the target is T1, SpnFADS. In words: HPLC of flavin products, steady-state FMNAT activity. The series is classed as biochemical. The note with it: 20 mM PIPES pH 7.0, 25 °C. The source says: HPLC of flavin products, steady-state FMNAT activity on SpnFADS
Series [3] concerns the target T1, SpnFADS. In words: HPLC of flavin products, steady-state RFK activity. The series is classed as biochemical. The note with it: saturating ATP (412 μM), 20 mM PIPES pH 7.0, 25 °C, 0.8 mM MgCl2, no dithionite. The text has this:
HPLC of flavin products, steady-state RFK activity on SpnFADS

A short description of series [4]: SEC; 20 uM pure SpnFADS on a calibrated Superdex 200 10/300 GL column, 50 mM Tris/HCl, pH 8.0, 150 mM NaCl; freshly purified fraction considered as monomeric.
Series [5] has as its target FAD synthetase from Streptococcus pneumoniae (SpnFADS) (Streptococcus pneumoniae). In words: atomic force microscopy; 0.5 uM SpnFADS on mica, with 250 uM ATP and 50 uM RF; 20 mM PIPES, pH 6.0, 2 mM DTT, 0.8 mM MgCl2, room temperature.
The target is the same in series [6]. The series is described as follows: atomic force microscopy; 0.5 uM SpnFADS on mica, with 250 uM ADP; 20 mM PIPES, pH 6.0, 2 mM DTT, 0.8 mM MgCl2, room temperature.
Series [7] shares this target. In words: atomic force microscopy; 0.5 uM SpnFADS on mica, no ligand; 20 mM PIPES, pH 6.0, 2 mM DTT, 0.8 mM MgCl2, room temperature.
For series [8] the target is unchanged. In words: atomic force microscopy; 0.5 uM SpnFADS on mica, with 250 uM ATP; 20 mM PIPES, pH 6.0, 2 mM DTT, 0.8 mM MgCl2, room temperature.
The target is the same in series [9]. In words: atomic force microscopy; 0.5 uM SpnFADS on mica, with 250 uM ADP and 50 uM FMN; 20 mM PIPES, pH 6.0, 2 mM DTT, 0.8 mM MgCl2, room temperature.
Series [10] has the same target. In words: cross-linking; pure SpnFADS in 50 mM KHPO4, pH 8.0, with BS3 crosslinker for 2 h at 4 °C, then 15% SDS-PAGE.
The target is the same in series [11]. The series is described as follows: atomic force microscopy; 0.5 uM SpnFADS on mica, with 250 uM ATP and 50 uM FMN; 20 mM PIPES, pH 6.0, 2 mM DTT, 0.8 mM MgCl2, room temperature.
Series [12] shares this target. In words: atomic force microscopy; 0.5 uM SpnFADS on mica, with 50 uM FAD and 250 uM PPi; 20 mM PIPES, pH 6.0, 2 mM DTT, 0.8 mM MgCl2, room temperature.
[13] abbreviates: 0.8 mM MgCl2, 4 mM sodium dithionite, 10 mM glucose, 0.5 U/mL glucose oxidase, reduced flavin, single site (FMNAT).

As usually defined, the stoichiometry N is a count of units in the complex or per binding partner.

T1 sequence (A0A0H2UPY5 entry or part of it): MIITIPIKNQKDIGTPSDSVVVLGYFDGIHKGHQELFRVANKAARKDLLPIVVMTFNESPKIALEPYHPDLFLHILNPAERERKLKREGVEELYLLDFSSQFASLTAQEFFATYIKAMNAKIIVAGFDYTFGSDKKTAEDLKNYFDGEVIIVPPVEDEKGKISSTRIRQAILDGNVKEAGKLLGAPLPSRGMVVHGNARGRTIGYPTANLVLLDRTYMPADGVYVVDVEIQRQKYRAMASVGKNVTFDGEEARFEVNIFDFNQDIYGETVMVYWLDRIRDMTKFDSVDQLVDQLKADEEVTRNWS

On to `Nc1ncnc2c1ncn2[C@@H]1O[C@H](COP(=O)(O)OP(=O)(O)O)[C@@H](O)[C@H]1O` [ADP], for which the “K d (μM)” value at SpnFADS [1] (no MgCl2, single site) was 4.1 ± 20% μM.

`Nc1ncnc2c1ncn2[C@@H]1O[C@H](COP(=O)(O)OP(=O)(O)OP(=O)(O)O)[C@@H](O)[C@H]1O` [ATP]: the “K m ^ATP (μM)” value at SpnFADS [2] (FMN 27.7 µM for kcat, 0.8 mM MgCl2, 3 mM sodium dithionite) was found to be 31.6 ± 10% µM. Further, the “K d (μM)” value at SpnFADS [1] (0.8 mM MgCl2, single site) came to 9.4 ± 20% μM.

Turning to `Cc1cc2nc3c(=O)[nH]c(=O)nc-3n(C[C@H](O)[C@H](O)[C@H](O)CO)c2cc1C` [RF], the “K m ^RF (μM)” value on SpnFADS [3] was 0.9 ± 10% μM.

Consider `Cc1cc2c(cc1C)N(C[C@H](O)[C@H](O)[C@H](O)COP(=O)(O)OP(=O)(O)OC[C@H]1O[C@@H](n3cnc4c(N)ncnc43)[C@H](O)[C@@H]1O)c1[nH]c(=O)[nH]c(=O)c1N2` [reduced FAD], for which the “K d (μM)” value on SpnFADS [1] (setting [13]) stood at 12.5 ± 20% μM.

As for `Cc1cc2c(cc1C)N(C[C@H](O)[C@H](O)[C@H](O)COP(=O)(O)O)c1[nH]c(=O)[nH]c(=O)c1N2` [reduced FMN], the “K m ^RF (μM)” value at SpnFADS [2] (saturating ATP (252 μM), 0.8 mM MgCl2, 3 mM sodium dithionite (flavin reduced)) was 9.8 ± 10% µM. Further, at SpnFADS [1] (setting [13]), the K d is 0.8 ± 20% μM.

Take “FAD synthetase from Streptococcus pneumoniae (SpnFADS)”: the “percent of the protein in the main peak at ~14.5 mL (monomers or dimers)” value in [4] is “∼96% of the protein”.

In series [5], “FAD synthetase from Streptococcus pneumoniae (SpnFADS) (enzyme)” came in with a % of features that are dimers of 20%, a % of features that are monomers of 73%, a % of features that are trimers of 7% and a % of molecules in dimers of 30%. Also, in series [5], the % of molecules in monomers was 54% and the % of molecules in trimers came to 16%. In series [6], this compound had a % of features that are dimers of 7%, a % of features that are monomers of 60%, a % of features that are tetramers of 20% and a % of features that are trimers of 13%. For the same compound, in series [6], the % of molecules in dimers is 7%, the % of molecules in monomers amounted to 31%, the % of molecules in tetramers came to 47% and the % of molecules in trimers was 20%. Besides, in series [7], the % of features that are dimers was found to be 3%, the % of features that are monomers is 97%, the % of molecules in dimers came out at 6% and the % of molecules in monomers was found to be 94%. Besides, in series [8], the % of features that are dimers was found to be 12%, the % of features that are monomers stood at 70%, the % of features that are trimers amounted to 18% and the % of molecules in dimers is 16%. Further, in series [8], the % of molecules in monomers came out at 47% and the % of molecules in trimers was 37%. In series [9], this compound yielded a % of features that are dimers of 15%, a % of features that are monomers of 63%, a % of features that are trimers of 22% and a % of molecules in dimers of 19%. Besides, in series [9], the % of molecules in monomers was 40% and the % of molecules in trimers is 41%. Moreover, in [10], the stoichiometry N is 2. In [11], this compound returned a % of features that are dimers of 7%, a % of features that are monomers of 73%, a % of features that are trimers of 20% and a % of molecules in dimers of 9%. In series [11], this compound showed a % of molecules in monomers of 50% and a % of molecules in trimers of 41%. In series [12], this compound returned a % of features that are dimers of 7%, a % of features that are monomers of 73%, a % of features that are trimers of 20% and a % of molecules in dimers of 9%. In series [12], this compound gave a % of molecules in monomers of 50% and a % of molecules in trimers of 41%.
